In patent US20240239875A1 (published 2024):
Positions count from the first letter of the chain named.

T1: HKU1 spike protein (HCoV-HKU1)
T1 chain: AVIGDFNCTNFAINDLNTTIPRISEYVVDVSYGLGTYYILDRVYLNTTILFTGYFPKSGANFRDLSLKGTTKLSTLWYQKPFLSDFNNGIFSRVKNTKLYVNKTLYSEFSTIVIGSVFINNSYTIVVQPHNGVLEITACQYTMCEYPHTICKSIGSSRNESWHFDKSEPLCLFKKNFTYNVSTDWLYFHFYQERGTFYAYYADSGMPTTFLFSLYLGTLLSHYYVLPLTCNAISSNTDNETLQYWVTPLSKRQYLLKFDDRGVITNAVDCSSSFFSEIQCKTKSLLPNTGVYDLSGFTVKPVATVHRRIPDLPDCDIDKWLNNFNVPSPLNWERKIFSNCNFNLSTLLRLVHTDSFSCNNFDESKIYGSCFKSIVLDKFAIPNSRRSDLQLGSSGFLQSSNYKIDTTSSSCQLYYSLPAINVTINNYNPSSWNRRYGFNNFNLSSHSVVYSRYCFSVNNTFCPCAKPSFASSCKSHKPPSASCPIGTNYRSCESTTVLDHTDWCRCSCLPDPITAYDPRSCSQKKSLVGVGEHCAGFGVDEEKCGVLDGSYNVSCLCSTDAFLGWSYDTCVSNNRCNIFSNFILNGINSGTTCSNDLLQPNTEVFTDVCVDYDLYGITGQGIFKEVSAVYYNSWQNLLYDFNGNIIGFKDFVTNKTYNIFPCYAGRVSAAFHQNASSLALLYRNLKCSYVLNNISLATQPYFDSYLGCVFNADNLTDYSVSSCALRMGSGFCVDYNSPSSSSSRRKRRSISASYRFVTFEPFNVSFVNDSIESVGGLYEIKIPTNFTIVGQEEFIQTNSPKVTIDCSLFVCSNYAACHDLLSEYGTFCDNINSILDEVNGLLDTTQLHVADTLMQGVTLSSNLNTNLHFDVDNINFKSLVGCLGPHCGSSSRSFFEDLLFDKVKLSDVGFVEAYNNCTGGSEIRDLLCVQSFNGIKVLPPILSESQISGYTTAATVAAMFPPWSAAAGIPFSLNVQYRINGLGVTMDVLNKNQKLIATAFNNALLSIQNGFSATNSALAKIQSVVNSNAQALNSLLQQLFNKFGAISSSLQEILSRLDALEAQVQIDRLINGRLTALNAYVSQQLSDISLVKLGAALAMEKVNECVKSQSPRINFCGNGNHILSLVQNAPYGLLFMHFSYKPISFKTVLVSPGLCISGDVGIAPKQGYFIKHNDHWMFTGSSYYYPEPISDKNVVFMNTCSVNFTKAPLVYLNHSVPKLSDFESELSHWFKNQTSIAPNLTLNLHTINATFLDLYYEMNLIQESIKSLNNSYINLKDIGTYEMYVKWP

T2: HCoV-OC43 spike protein (HCoV-OC43)
T2 chain: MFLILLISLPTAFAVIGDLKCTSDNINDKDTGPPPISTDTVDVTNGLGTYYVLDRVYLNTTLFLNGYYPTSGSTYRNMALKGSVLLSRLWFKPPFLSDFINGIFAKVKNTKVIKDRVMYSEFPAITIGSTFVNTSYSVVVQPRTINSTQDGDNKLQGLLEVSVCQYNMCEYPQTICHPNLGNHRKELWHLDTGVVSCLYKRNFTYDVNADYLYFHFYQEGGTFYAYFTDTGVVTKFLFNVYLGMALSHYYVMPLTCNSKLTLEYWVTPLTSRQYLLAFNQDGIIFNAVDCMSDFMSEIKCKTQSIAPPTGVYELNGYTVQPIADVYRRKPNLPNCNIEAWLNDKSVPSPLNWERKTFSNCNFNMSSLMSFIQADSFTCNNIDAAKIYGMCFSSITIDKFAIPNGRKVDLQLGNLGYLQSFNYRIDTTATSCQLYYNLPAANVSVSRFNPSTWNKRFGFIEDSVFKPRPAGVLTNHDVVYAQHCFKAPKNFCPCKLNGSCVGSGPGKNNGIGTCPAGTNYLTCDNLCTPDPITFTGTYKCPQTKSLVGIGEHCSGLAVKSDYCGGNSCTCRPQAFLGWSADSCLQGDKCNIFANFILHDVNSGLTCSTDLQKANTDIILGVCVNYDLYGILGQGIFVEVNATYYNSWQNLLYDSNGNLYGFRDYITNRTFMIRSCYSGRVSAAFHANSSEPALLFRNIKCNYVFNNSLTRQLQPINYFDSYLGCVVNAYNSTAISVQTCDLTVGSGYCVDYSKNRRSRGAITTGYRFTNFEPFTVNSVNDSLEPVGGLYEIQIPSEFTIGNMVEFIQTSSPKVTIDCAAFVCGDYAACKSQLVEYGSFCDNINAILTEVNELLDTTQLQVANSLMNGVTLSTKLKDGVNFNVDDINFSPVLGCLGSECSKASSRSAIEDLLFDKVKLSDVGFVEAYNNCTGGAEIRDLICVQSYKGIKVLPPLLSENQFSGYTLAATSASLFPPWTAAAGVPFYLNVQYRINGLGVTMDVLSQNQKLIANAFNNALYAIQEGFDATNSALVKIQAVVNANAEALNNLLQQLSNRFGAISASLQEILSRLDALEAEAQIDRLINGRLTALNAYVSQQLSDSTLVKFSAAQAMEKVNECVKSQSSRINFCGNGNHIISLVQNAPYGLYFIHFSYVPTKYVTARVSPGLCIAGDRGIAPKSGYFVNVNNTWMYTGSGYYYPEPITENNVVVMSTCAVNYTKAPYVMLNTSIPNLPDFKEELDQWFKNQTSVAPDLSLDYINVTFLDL

B1: 9-F6-A (antibody, V domains shown)
VH: EVQLQQSGPELVKPGASVKMSCKASGYTFTSYIMHWVKQKPGQGLEWIGYILPYNDGTKYNEKFKGKATLTSDKSSSTAYMELRSLTSEDSAVYYCARWGYSNFLDSWGQGTTLTVSS
VL: DIQMTQTTSSLSASLGDRVTISCRASQDINNYLNWYQQKPDGTVKLLIYYTSRLHSGVPSRFSGSGSGTDYSLTIRNLEQEDIATYFCQQGNTLPPTFGGGTKLEIK
B2: 7-D7-A (antibody, V domains shown)
VH: QVQLKESGPGLVAPSQSLSITCTVSGFSLTSYAISWVRQPPGKGLEWLGVIWPGGGTNYNSALKSRLSISKDNSKSQVFLKMNSLQTDDTAKYYCARTGYYFDYWGQGTTLTVSS
VL: QLILTQSPAIMSASPGEKVTMTCSASLSVNYMYWFQQKPGTSPKRWIHDTSKLASGVPARFSGSGSGTSYSLTISSMEAEDAATYYCQQWSSNPPMYTFGGGTKLEIK
B3: 8-A17-A (antibody, V domains shown)
VH: B2 VH with I51V, S70N, A91G, K92R, Y101H
VL: B2 VL with L2I, I3V, A25V, L27S, N30S, Y33H, F35Y, P39S, H48Y
B4: 1-B11-A (antibody, V domains shown)
VH: QVQLQQSGPELVKPGASVKISCKASGYTFTDHYINWVKQRPGQGLEWIGWIFPGSGSTYYNEQFKGKATLTVDKSSNTAYMLLSSLTSEDSAVYFCARSGGLRLGFAYWGQGTLVTVSA
VL: B1 VL with N30S, R76S, A84S, G91V, P96Y
B5: 1-L10-A (antibody, V domains shown)
VH: EVKLEESGGGLVQPGGSMKLSCVASGFTFNNYWMNWVRQSPEKGLEWVAQMRLKSDNYATHYAESVKGRFTISRDDSKSSVYLQMNNLRAEDTGIYYCIEGYWTYWGQGTLVTVSA
VL: QIVLTQSPAIMSASLGERVTMTCTASSSVSSSYLHWYQQKPGSSPKLWIYSTSNLASGVPARFSGNGSGTSYSLTISSMEAEDAATYYCLQYHRSPPYTFGGGTKLEIK
B6: 2-G20-A (antibody, V domains shown)
VH: EVQLQQSGPELVKPGASVKMSCKASGYTFPSYVLHWVKQKPGQGLEWIGYIYPYNDGTNYNEKFKGKATLTSDKSSSTAYMELSSLTSEDSAVYYCARGDYGDSAWFPYWGQGTLVTVSA
VL: DIVLTQSPASLAVSLGQRATISCRASKSVSTSGYSYMHWYQQKPGQPPKLLIYLASNLKSGVPARFSGGGSGTDFTLNIHPVEEEDAATYYCQLSRELPWTFGGGTKLEIK
B7: 6-O12-A (antibody, V domains shown)
VH: QVQLQQPGTELVKPGASVKLSCKASGYTFTSYWMHWVKQRPGQGLEWIGNINPSNGGTNYNEKFRSKATLTVDKSSSTAYMQLSSLTSEDSAVYYCARLGWFLPLGSWGQGTTLTVSS
VL: QIVLTQSPAIMSASLGEVITLTCSASSSVSYMHWYQQKSGTSPKLLIYSTSNLASGVPSRFSGSGSGTFYSLTISSVEAEDAADYYCHQWSGYMYTFGGGTKLEIK

Columns and labels:
Assay in all cases: ELISA
HKU1 spike protein = target: T1, HKU1 spike protein
HCoV-OC43 spike protein = target: T2, HCoV-OC43 spike protein
SARS-CoV-2 S2 domain = SARS-CoV-2 S2 domain (UniProt P0DTC2 686-1213)
[1] = target: SARS-CoV-2 prefusion stabilized trimer protein (WIV02 isolate spike protein) (UniProt P0DTC2 14-1213)

| Binder | EC50 (HKU1 spike protein) [pM] | EC50 (HCoV-OC43 spike protein) [pM] | EC50 (SARS-CoV-2 S2 domain) [pM] | EC50 [1] [pM] |
| --- | --- | --- | --- | --- |
| B1 | 610 | 50 |  |  |
| B2 | 1300 | 230 |  |  |
| B3 | 370 | 50 |  |  |
| B4 | 820 | 570 | 6620 | 10300 |
| B5 | 2730 | 770 |  |  |
| B6 | 1390 | 280 |  |  |
| B7 | 410 | 230 |  |  |
